According to patent publication US20240400701A1 (LANOVA MEDICINES DEVELOPMENT, published 2024):
Numbering of substitutions follows the chain as printed.

B1: 108F3D1E9 H1L1 hIgG1 (antibody, V domains shown)
VH: QLQLQESGPGLVKPSETLSLTCTVSGYSITSDFAWNWIRQPPGKGLEWIGYISFSGSTSYNPSLKSRVTISVDTSKNQFSLKLSSVTAADTAVYYCARSRYSWFAYWGQGTLVTVSS
VL: DIQMTQSPSSLSASVGDRVTITCRASESVDTYGNSFMHWYQQKPGKAPKLLIYRASNLESGVPSRFSGSGSGTDFTLTISSLQPEDFATYYCQQSNEDPYTFGGGTKVEIK
notes: Humanized, PTM de-risked VH, human IgG1; also called 108F3D1E9 H1L1 hlgG1
B2: 94C4C3 H1L1 hIgG1 (antibody, V domains shown)
VH: B1 VH with F33Y, F54Y, T58I, A105D
VL: EIVLTQSPGTLSLSPGERATLSCSASESVDTYGNSFMHWYQQKPGQAPRLLIYRASSLESGIPDRFSGSGSGTDFTLTISRLEPEDFAVYYCQQSNEDPYTFGGGTKVEIK
notes: Humanized, human IgG1; also called 94C4C3 H1L1 hlgG1
B3: 31D9B3 VH1.3-VL2.2 hIgG1 (antibody, V domains shown)
VH: QVQLVQSGAEVKKPGASVKVSCKASGYTFTDYWVSWVRQAPGQGLEWMGEIYPKNQVSNFNEKFKGRVTMTTDTSTSTAYMELRSLRSDDTAVYYCARQRDYWGQGTLVTVSS
VL: DVVMTQSPLSLPVTLGQPASISCRSSQSLEYGDRYTYLEWYLQRPGQSPRLLIYGVSNRFSGVPDRFSGSGSGTDFTLKISRVEAEDVGVYYCFQATHDPNTFGQGTKLEIK
notes: Humanized, PTM de-risked, human IgG1; also called 31D9B3 VH1.3-VL2.2 hlgG1

What was measured:
[1] = target: T1, human AMHRII (anti-Mullerian hormone receptor type 2) (human, UniProt Q16671 18-573); assay: FACS on Rko cells over-expressing human AMHR2
T1 construct: whole, on cells; also called AMHR2; human AMHR2
T1 sequence (looked up): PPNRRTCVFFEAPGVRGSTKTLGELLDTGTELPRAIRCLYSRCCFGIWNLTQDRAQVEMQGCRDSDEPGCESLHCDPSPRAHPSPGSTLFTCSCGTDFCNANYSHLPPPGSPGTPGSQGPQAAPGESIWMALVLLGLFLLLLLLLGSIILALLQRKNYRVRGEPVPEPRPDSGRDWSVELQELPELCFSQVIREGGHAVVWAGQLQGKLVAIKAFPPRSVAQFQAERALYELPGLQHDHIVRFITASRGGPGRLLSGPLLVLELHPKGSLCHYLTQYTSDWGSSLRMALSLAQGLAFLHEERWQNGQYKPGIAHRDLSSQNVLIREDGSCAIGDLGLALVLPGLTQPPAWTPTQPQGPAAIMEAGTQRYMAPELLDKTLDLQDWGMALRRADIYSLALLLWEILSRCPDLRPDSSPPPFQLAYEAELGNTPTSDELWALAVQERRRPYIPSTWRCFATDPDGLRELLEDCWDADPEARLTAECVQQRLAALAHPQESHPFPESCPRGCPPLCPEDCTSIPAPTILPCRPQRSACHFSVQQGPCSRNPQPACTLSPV
Procedure: (§1) Rko cells over-expressing AMHR2 were harvested from flasks. 100 μl of 1×10⁶ cells/ml of cells were incubated with primary PTM antibodies in 3-fold serial dilutions starting from 300 nM to 0.001 nM for 30 minutes on ice. After being washed with 200 μl of FACS buffer twice, cells were incubated with secondary antibody for 30 minutes on ice. Cells were washed with 200 μl of FACS buffer twice and analyzed by FACS.

[2] = target: T2, mouse AMHR2 (mouse, UniProt Q8K592 16-568); assay: FACS on CHO-K1 cells over-expressing mouse AMHR2
T2 construct: whole, on cells; also called mouse AMHRII
T2 sequence (looked up): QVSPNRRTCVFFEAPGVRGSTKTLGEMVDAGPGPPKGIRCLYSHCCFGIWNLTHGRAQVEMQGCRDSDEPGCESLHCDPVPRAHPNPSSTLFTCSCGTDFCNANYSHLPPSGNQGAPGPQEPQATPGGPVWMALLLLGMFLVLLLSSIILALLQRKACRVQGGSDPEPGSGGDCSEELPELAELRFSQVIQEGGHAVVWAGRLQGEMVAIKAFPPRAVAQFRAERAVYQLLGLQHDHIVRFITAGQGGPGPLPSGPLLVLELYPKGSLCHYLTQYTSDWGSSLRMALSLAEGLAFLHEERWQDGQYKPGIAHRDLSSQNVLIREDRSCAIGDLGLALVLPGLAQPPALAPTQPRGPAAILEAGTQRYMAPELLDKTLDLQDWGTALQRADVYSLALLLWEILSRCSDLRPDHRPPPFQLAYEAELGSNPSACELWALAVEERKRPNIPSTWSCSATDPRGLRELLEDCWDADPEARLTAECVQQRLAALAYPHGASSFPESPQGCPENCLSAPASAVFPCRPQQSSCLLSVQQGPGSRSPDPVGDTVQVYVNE
Procedure: as §1, with “To evaluate these antibodies' cross reactivities to cyno, rat and mouse AMHR2, CHO-K1” for “Rko”, “cyno, rat and mouse AMHR2, respectively,” for “AMHR2”, “primary” for “primary PTM”, “4-fold” for “3-fold”, “0.018” for “0.001”

[3] = target: T1, human AMHRII (anti-Mullerian hormone …); assay: FACS on CHO-K1 cells over-expressing human AMHR2
Procedure: as §1, with “CHO-K1” for “Rko”, “over-expressed” for “over-expressing”, “the humanized” for “primary PTM”

[4] = target: T3, rat AMHR2 (rat, UniProt Q62893 18-557); assay: FACS on CHO-K1 cells over-expressing rat AMHR2
T3 construct: whole, on cells; also called rat AMHRII
T3 sequence (looked up): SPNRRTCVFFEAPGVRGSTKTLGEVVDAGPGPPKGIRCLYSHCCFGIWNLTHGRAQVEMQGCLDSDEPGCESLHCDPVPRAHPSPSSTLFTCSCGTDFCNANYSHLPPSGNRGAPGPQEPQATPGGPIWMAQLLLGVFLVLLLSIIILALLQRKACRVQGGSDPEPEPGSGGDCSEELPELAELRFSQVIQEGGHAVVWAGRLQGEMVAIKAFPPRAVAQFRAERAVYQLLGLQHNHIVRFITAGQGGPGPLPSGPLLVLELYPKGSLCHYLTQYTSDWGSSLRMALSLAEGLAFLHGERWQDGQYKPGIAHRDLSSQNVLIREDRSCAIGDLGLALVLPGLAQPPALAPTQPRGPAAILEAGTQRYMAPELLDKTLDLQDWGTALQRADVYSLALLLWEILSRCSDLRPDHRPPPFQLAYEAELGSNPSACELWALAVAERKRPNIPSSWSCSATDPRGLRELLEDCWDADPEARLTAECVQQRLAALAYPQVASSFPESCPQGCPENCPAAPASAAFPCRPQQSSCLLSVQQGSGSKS
Procedure: as §1, with “To evaluate these antibodies' cross reactivities to cyno, rat and mouse AMHR2, CHO-K1” for “Rko”, “cyno, rat and mouse AMHR2, respectively,” for “AMHR2”, “primary” for “primary PTM”, “4-fold” for “3-fold”, “0.018” for “0.001”

[5] = target: T1, human AMHRII (anti-Mullerian hormone …); assay: FACS on CHO-K1 cells over-expressing human AMHR2; remark: listed apart in the source
Procedure: as §1, with “CHO-K1” for “Rko”, “over-expressed” for “over-expressing”, “the humanized” for “primary PTM”

Binder | EC50 [1] | Top (MFI) [1] | binding result [2] | EC50 [3] | Top (MFI) [3] | binding result [4] | EC50 [5] | Top (MFI) [5]
B1 | 0.528 nM | 16200 MFI | binds | 0.74 nM | 65400 MFI | binds |  | 
B2 | 0.695 nM | 18900 MFI | binds | 1.7 nM | 53000 MFI | binds |  | 
B3 | 0.783 nM | 16400 MFI | no binding (tested: 300 nM highest concentration) |  |  | no binding (tested: 300 nM highest concentration) | 0.703 nM | 24100 MFI
